Numbering of substitutions follows the chain as printed. In names and notes the source's numbering stands. Several values for one entry are separate records, joined by “and”; a condition that tells them apart may be missing. Equal values may be shown once.

B1: KB001 mouse Fab FASEBA VH L63V (Fab, V domains shown)
VH: EVQLKQSGPGLVAPSQSLSITCTVSGFSLSIYSVHWVRQPPGKGLEWLGMIWGGGSSDYNSAVKSRLSISKDNSKSQVFLKMNSLQTDDTAMYYCARNGNFYAMDYWGQGTSVTVSS
VL: QIVLTQSPAIMSASLGERVTMTCTASSSVSSSFLHWYQQKPGSSPQLWIYSTSNLASGVPARFSGSGSGTSYSLTISSMEAEDAATYYCHQYHHSPYIYTFGGGTKLEIK
B2: KB001 mouse Fab FASEBA VH K64G (Fab, V domains shown)
VH: B1 VH with V63L, K64G
VL: B1 VL
B3: KB001 mouse Fab FASEBA VH L63Y (Fab, V domains shown)
VH: B1 VH with V63Y
VL: B1 VL
B4: KB001 mouse Fab FASEBA VH K64Y (Fab, V domains shown)
VH: B1 VH with V63L, K64Y
VL: B1 VL
B5: KB001 mouse Fab FASEBA VH A62G (Fab, V domains shown)
VH: B1 VH with A62G, V63L
VL: B1 VL
B6: KB001 mouse Fab FASEBA VH K64M (Fab, V domains shown)
VH: B1 VH with V63L, K64M
VL: B1 VL
B7: KB001 mouse Fab FASEBA VH S61L (Fab, V domains shown)
VH: B1 VH with S61L, V63L
VL: B1 VL
B8: KB001 mouse Fab FASEBA VH A62N (Fab, V domains shown)
VH: B1 VH with A62N, V63L
VL: B1 VL
B9: KB001 mouse Fab FASEBA VH S61H (Fab, V domains shown)
VH: B1 VH with S61H, V63L
VL: B1 VL
B10: KB001 mouse Fab FASEBA VH A62H (Fab, V domains shown)
VH: B1 VH with A62H, V63L
VL: B1 VL
B11: KB001 mouse Fab FASEBA VH A62Q (Fab, V domains shown)
VH: B1 VH with A62Q, V63L
VL: B1 VL
B12: KB001 mouse Fab FASEBA VH K64H (Fab, V domains shown)
VH: B1 VH with V63L, K64H
VL: B1 VL
B13: KB001 mouse Fab FASEBA VH A62F (Fab, V domains shown)
VH: B1 VH with A62F, V63L
VL: B1 VL
B14: KB001 mouse Fab FASEBA VH L63M (Fab, V domains shown)
VH: B1 VH with V63M
VL: B1 VL
B15: KB001 mouse Fab FASEBA VH K64I (Fab, V domains shown)
VH: B1 VH with V63L, K64I
VL: B1 VL
B16: KB001 mouse Fab FASEBA VH A62L (Fab, V domains shown)
VH: B1 VH with A62L, V63L
VL: B1 VL
B17: KB001 mouse Fab FASEBA VH A62I (Fab, V domains shown)
VH: B1 VH with A62I, V63L
VL: B1 VL
B18: KB001 mouse Fab FASEBA VH K64S (Fab, V domains shown)
VH: B1 VH with V63L, K64S
VL: B1 VL
B19: KB001 mouse Fab FASEBA VH L63F (Fab, V domains shown)
VH: B1 VH with V63F
VL: B1 VL
B20: KB001 mouse Fab FASEBA VH L63H (Fab, V domains shown)
VH: B1 VH with V63H
VL: B1 VL
B21: KB001 mouse Fab FASEBA VH A62D (Fab, V domains shown)
VH: B1 VH with A62D, V63L
VL: B1 VL
B22: KB001 mouse Fab FASEBA VH A62E (Fab, V domains shown)
VH: B1 VH with A62E, V63L
VL: B1 VL
B23: KB001 mouse Fab FASEBA VH K64V (Fab, V domains shown)
VH: B1 VH with V63L, K64V
VL: B1 VL
B24: KB001 mouse Fab FASEBA VH A62M (Fab, V domains shown)
VH: B1 VH with A62M, V63L
VL: B1 VL
B25: KB001 mouse Fab FASEBA VH A62V (Fab, V domains shown)
VH: B1 VH with A62V, V63L
VL: B1 VL
B26: KB001 mouse Fab FASEBA VH A62R (Fab, V domains shown)
VH: B1 VH with A62R, V63L
VL: B1 VL
B27: parental mouse (KB001) Fab FASEBA, VL variant L55R/S51G (Fab, V domains shown)
VH: B1 VH with V63L
VL: B1 VL with S51G, L55R
B28: parental mouse (KB001) Fab FASEBA, VL variant A56V (Fab, V domains shown)
VH: B1 VH with V63L
VL: B1 VL with A56V
B29: parental mouse (KB001) Fab FASEBA, VL variant A56T (Fab, V domains shown)
VH: B1 VH with V63L
VL: B1 VL with A56T
B30: parental mouse (KB001) Fab FASEBA, VL variant A56Q (Fab, V domains shown)
VH: B1 VH with V63L
VL: B1 VL with A56Q
B31: parental mouse (KB001) Fab FASEBA, VL variant A56R (Fab, V domains shown)
VH: B1 VH with V63L
VL: B1 VL with A56R
B32: parental mouse (KB001) Fab FASEBA, VL variant A56S (Fab, V domains shown)
VH: B1 VH with V63L
VL: B1 VL with A56S
B33: parental mouse (KB001) Fab FASEBA, VL variant A56N (Fab, V domains shown)
VH: B1 VH with V63L
VL: B1 VL with A56N
B34: parental mouse (KB001) Fab FASEBA, VL variant A56P (Fab, V domains shown)
VH: B1 VH with V63L
VL: B1 VL with A56P
B35: parental mouse (KB001) Fab FASEBA, VL variant L55Q (Fab, V domains shown)
VH: B1 VH with V63L
VL: B1 VL with L55Q
B36: parental mouse (KB001) Fab FASEBA, VL variant L55H (Fab, V domains shown)
VH: B1 VH with V63L
VL: B1 VL with L55H
B37: parental mouse (KB001) Fab FASEBA, VL variant L55S (Fab, V domains shown)
VH: B1 VH with V63L
VL: B1 VL with L55S

For one assay, the target named is HRgpA-6H (Porphyromonas gingivalis) (UniProt P28784). Kind of assay: ELISA on coated HRgpA-6H.
Chain of UniProt P28784 (P28784 228-991 limits assumed): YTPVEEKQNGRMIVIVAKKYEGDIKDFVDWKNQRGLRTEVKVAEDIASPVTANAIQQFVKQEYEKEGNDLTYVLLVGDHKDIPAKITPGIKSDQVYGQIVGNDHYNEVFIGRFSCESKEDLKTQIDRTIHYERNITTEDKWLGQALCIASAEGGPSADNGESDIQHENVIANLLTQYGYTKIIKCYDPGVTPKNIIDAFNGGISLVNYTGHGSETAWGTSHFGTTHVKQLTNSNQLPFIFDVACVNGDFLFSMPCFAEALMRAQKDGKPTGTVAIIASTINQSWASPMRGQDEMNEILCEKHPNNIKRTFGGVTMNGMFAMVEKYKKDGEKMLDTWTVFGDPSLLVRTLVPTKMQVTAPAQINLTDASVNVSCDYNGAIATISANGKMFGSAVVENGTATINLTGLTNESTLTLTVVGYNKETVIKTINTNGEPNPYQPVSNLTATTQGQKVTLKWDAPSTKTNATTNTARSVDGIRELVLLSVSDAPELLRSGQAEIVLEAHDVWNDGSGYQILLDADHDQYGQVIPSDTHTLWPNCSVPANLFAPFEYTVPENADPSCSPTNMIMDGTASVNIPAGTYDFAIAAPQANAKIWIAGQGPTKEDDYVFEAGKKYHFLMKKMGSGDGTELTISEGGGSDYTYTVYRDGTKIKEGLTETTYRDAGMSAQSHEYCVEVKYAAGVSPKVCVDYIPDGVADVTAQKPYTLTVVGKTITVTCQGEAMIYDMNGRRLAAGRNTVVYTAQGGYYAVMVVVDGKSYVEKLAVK
As to B1, the OD450nm was 0.784 and 0.77 and 0.778; the Ratio OD(Variant)/OD(WT) was 0.897 and 0.881 and 0.89.

Turning to B2, the OD450nm was 0.806 and the Ratio OD(Variant)/OD(WT) turned out to be 0.975.

Turning to B3, the OD450nm is 0.836 and 0.846 and 0.801; the Ratio OD(Variant)/OD(WT) was 0.957 and 0.968 and 0.916.

In the case of B4, the OD450nm was determined as 0.763 and the Ratio OD(Variant)/OD(WT) amounted to 0.923.

For the molecule B5, the OD450nm was 0.813 and 0.785; the Ratio OD(Variant)/OD(WT) is 0.93 and 0.898.

Turning to B6, the OD450nm is 0.799 and 0.757 and 0.78; the Ratio OD(Variant)/OD(WT) was 0.966 and 0.915 and 0.943.

Turning to B7, the OD450nm is 0.448 and the Ratio OD(Variant)/OD(WT) is 0.908.

For the molecule B8, the OD450nm is 0.721 and 0.799; the Ratio OD(Variant)/OD(WT) was 0.825 and 0.914.

For the molecule B9, the OD450nm was 0.469 and the Ratio OD(Variant)/OD(WT) was 0.95.

Take B10: the OD450nm is 0.819 and 0.834 and 0.844; the Ratio OD(Variant)/OD(WT) was 0.937 and 0.954 and 0.966.

For the molecule B11, the OD450nm was 0.737 and 0.869; the Ratio OD(Variant)/OD(WT) is 0.843 and 0.994.

Consider B12, for which the OD450nm came out at 0.752 and the Ratio OD(Variant)/OD(WT) is 0.909.

B13: the OD450nm was 0.843 and 0.733; the Ratio OD(Variant)/OD(WT) was 0.965 and 0.839.

For B14, the OD450nm is 0.8 and the Ratio OD(Variant)/OD(WT) came to 0.915.

Turning to B15, the OD450nm was 0.743 and 0.756 and 0.715; the Ratio OD(Variant)/OD(WT) was 0.898 and 0.914 and 0.865.

As to B16, the OD450nm was 0.812 and the Ratio OD(Variant)/OD(WT) was 0.929.

As to B17, the OD450nm is 0.702 and 0.808; the Ratio OD(Variant)/OD(WT) was 0.803 and 0.924.

As to B18, the OD450nm worked out at 0.808 and the Ratio OD(Variant)/OD(WT) worked out at 0.977.

For B19, the OD450nm was 0.743 and the Ratio OD(Variant)/OD(WT) is 0.85.

B20: the OD450nm is 0.818 and 0.843 and 0.822; the Ratio OD(Variant)/OD(WT) was 0.936 and 0.965 and 0.941.

Take B21: the OD450nm was 0.853 and 0.851; the Ratio OD(Variant)/OD(WT) is 0.976 and 0.974.

For the molecule B22, the OD450nm turned out to be 0.854 and the Ratio OD(Variant)/OD(WT) was 0.977.

With B23, the OD450nm was 0.715 and 0.714; the Ratio OD(Variant)/OD(WT) was 0.865 and 0.863.

In the case of B24, the OD450nm is 0.77 and 0.735; the Ratio OD(Variant)/OD(WT) is 0.881 and 0.841.

B25: the OD450nm was 0.742 and 0.757; the Ratio OD(Variant)/OD(WT) was 0.849 and 0.866.

Turning to B26, the OD450nm was 0.733 and 0.847 and 0.809; the Ratio OD(Variant)/OD(WT) was 0.839 and 0.969 and 0.926.

For the next assay the target is unchanged. Kind of assay: ELISA, Fab FASEBA supernatant on coated HRgpA-6H.
B27: the OD450nm turned out to be 0.748 OD450nm and the Ratio OD(Variant)/OD(WT) is 0.955 ratio to WT.

Regarding B28, the OD450nm is 0.794 OD450nm and 0.795 OD450nm; the Ratio OD(Variant)/OD(WT) was 0.974 ratio to WT and 0.975 ratio to WT.

Consider B29, for which the OD450nm stood at 0.731 OD450nm and the Ratio OD(Variant)/OD(WT) was 0.896 ratio to WT.

In the case of B30, the OD450nm turned out to be 0.705 OD450nm and the Ratio OD(Variant)/OD(WT) is 0.865 ratio to WT.

In the case of B31, the OD450nm is 0.728 OD450nm and 0.734 OD450nm and 0.751 OD450nm; the Ratio OD(Variant)/OD(WT) was 0.893 ratio to WT and 0.9 ratio to WT and 0.921 ratio to WT.

On to B32, for which the OD450nm is 0.772 OD450nm and 0.751 OD450nm and 0.774 OD450nm; the Ratio OD(Variant)/OD(WT) was 0.947 ratio to WT and 0.921 ratio to WT and 0.949 ratio to WT.

For the molecule B33, the OD450nm is 0.712 OD450nm and 0.775 OD450nm; the Ratio OD(Variant)/OD(WT) is 0.873 ratio to WT and 0.95 ratio to WT.

Consider B34, for which the OD450nm was found to be 0.748 OD450nm and the Ratio OD(Variant)/OD(WT) was 0.917 ratio to WT.

Take B35: the OD450nm stood at 0.662 OD450nm and the Ratio OD(Variant)/OD(WT) was 0.845 ratio to WT.

On to B36, for which the OD450nm was determined as 0.64 OD450nm and the Ratio OD(Variant)/OD(WT) was 0.817 ratio to WT.

Regarding B37, the OD450nm came to 0.655 OD450nm and the Ratio OD(Variant)/OD(WT) is 0.836 ratio to WT.

The values above are taken from patent US20230365662A1.
